Source: US20030143665A1 (NEW YORK UNIVERSITY, published 2003)

How the values were obtained:
[1] = biological target: T1, recombinant CIRL (calcium-independent receptor of α-latrotoxin), full-length, expressed in COS cells (rat, UniProt O88917 22-1515)
T1 sequence: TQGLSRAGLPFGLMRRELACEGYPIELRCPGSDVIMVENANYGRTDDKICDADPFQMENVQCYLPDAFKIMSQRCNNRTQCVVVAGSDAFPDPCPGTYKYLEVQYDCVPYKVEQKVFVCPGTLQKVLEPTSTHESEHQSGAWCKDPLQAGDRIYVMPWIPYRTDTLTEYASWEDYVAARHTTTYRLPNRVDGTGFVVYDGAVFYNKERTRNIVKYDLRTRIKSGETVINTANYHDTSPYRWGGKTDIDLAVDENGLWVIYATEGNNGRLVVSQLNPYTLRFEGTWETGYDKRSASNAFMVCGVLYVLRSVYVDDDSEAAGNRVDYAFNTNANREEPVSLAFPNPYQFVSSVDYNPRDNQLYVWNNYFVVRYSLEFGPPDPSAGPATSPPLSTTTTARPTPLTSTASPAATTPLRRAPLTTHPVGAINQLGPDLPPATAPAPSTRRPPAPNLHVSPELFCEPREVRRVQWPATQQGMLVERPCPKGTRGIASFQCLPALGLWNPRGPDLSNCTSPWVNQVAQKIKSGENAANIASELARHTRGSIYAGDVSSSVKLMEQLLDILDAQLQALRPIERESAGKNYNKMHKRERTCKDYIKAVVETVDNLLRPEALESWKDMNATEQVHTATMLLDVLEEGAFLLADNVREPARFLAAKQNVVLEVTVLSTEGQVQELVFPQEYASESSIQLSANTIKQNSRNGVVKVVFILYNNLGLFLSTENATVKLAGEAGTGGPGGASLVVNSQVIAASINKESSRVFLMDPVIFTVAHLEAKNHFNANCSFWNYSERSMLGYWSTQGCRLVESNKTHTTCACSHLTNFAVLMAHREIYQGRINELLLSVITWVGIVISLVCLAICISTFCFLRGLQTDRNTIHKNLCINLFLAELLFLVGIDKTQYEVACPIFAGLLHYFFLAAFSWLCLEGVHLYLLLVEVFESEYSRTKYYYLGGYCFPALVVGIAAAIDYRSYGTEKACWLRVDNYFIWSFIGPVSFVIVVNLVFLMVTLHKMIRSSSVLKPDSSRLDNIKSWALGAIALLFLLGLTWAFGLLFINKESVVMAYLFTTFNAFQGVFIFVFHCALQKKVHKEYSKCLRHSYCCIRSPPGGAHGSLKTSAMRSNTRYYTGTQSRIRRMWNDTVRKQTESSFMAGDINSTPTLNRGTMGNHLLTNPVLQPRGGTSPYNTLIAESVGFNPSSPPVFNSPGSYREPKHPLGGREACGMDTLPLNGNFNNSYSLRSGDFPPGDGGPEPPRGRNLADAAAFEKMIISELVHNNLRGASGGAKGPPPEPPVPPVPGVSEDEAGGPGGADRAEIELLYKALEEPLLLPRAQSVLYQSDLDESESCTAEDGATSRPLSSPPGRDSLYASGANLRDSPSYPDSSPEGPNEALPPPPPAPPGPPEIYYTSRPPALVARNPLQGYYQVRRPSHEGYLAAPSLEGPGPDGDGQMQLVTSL

[2] = biological target: T2, native CIRL of rat brain (calcium-independent α-latrotoxin binding sites in rat brain membranes); affinity … (rat, UniProt O88917 22-1515)
T2 sequence: T1 sequence

B1: α-latrotoxin (ligand)
chain: EGEDLTLEEKAEICSELELQQKYVDIASNIIGDLSSLPIAGKIAGTIAAAAMTATHVASGRLDIEQTLLGCSDLPFDQIKEVLENRFNEIDRKLDSHSAALEEITKLVEKSISVVEKTRKQMNKRFDEVMKSIQDAKVSPIISKINNFARYFDTEKERIRGLKLNDYILKLEEPNGILLHFKESRTPTDDSLQAPLFSIIEEGYAVPKSIDDELAFKVLYALLYGTQTYVSVMFFLLEQYSFLANHYYEKGYLEKYDEYFNSLNNVFLDFKSSLVGTGTSNNEGLLDRVLQVLMTVKNSEFLGLEKNGVDEMLNEKINLFNKIKEEIEGKQKMTLSETPENFAQISFDKDITTPIGDWRDGREVRYAVQYASETLFSKISHWSDPVSVREKACPTLRMPVDQTRRNVLVFRKFDSSKPQLVGEITPYLSNFIDIDRDLYNAASNPDSAVGFKEFTKLNYDGANIRATFDHGRTVFHAAAKSGNDKIMFGLTFLAKSTELNQPDKKGYTPIHVAADSGNAGIVNLLIQRGVSINSKTYHFLQTPLHLAAQRGFVTTFQRLMESPEININERDKDGFTPLHYAIRGGERILEAFLNQISIDVNAKSNTGLTPFHLAIIKNDWPVASTLLGSKKVDINAVDENNITALHYAAILGYLETTKQLINLKEINANVVSSPGLLSALHYAILYKHDDVASFLMRSSNVNVNLKALGGITPLHLAVIQGRKQILSLMFDIGVNIEQKTDEKYTPLHLAAMSKYPELIQILLDQGSNFEAKTNSGATPLHLATFKGKSQAALILLNNEVNWRDTDENGQMPIHGAAMTGLLDVAQAIISIDATVVDIEDKNSDTPLNLAAQNSHIDVIKYFIDQGADINTRNKKGLAPLLAFSKKGNLDMVKYLFDKNANVYIADNDGMNFFYYAVQNGHLNIVKYAMSEKDKFEWSNTDNNRRDECPNEECAISHFAVCDAVQFDRIEIVKYFVGTLGNFAICGPLHQAARYGHLDIVKYLVEEEFLSVDGSKTDTPLCYASENGHFTVVQYLVSNGAKVNHDCGNGMTAIDKAITKNHLQVVQFLAANGVDFRRKNSRGTTPFLTAVAENALHIAEYLIREKRQDININEQNVDKDTALHLAVYYKNLQMIKLLIKYGIDVTIRNAYDKTALDIAIDAKFSNIVEYLKTKSGKFRR
modifications: 125I label (chloramine T procedure) in the binding and immunoprecipitation assays; coupled to Sepharose in the affinity chromatography
Binder B1 has a Kd [1] of 0.16 nM and a Kd [2] of 0.28 nM.
